Key:
Assay in all cases: pull-down
His-tagged STX7 (1-236) = target: T1, His-tagged STX7 (1-236) (human, UniProt O15400 1-236)
T1 sequence: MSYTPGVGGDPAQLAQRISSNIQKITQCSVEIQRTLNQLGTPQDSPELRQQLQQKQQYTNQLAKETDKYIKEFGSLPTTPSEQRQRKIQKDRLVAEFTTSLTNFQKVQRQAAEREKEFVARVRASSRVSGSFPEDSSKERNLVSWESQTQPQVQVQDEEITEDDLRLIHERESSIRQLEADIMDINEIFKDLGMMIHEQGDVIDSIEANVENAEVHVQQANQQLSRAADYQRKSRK

His-tagged STX8 (1-210) = target: T2, His-tagged STX8 (1-210) (human, UniProt Q9UNK0 1-210)
T2 sequence: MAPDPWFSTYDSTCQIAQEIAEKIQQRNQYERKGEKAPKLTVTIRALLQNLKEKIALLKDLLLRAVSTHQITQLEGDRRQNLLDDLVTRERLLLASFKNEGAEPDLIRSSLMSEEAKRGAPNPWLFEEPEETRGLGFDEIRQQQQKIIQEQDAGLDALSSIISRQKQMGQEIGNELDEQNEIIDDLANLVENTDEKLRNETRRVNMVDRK

His-tagged VTI1B (1-204) = target: T3, His-tagged VTI1B (1-204) (human, UniProt Q9UEU0 1-204)
T3 sequence: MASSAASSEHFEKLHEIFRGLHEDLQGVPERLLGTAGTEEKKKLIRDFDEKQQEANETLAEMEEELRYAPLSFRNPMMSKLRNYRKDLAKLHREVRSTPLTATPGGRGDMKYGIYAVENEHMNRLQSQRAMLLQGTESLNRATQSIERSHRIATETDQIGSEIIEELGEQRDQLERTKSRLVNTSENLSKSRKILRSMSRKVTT

Measured: binding result

B1: GST-tagged VAMP4 (1-115) (domain or fragment)
chain: MPPKFKRHLNDDDVTGSVKSERRNLLEDDSDEEEDFFLRGPSGPRFGPRNDKIKHVQNQVDEVIDVMQENITKVIERGERLDELQDKSESLSDNATAFSNRSKQLRRQMWWRGCK
binds: all assays above

— paper PMC9441717 (The Journal of Cell Biology, 2022)
